Measurements published in US20120231000A1.

Legend:
[1] = biological target: ratVEGF1-165 homodimer (recombinant full-length ratVEGF) (rat) (UniProt P16612); assay: ELISA on coated antigen
[2] = biological target: humVEGF1-165 homodimer (recombinant full-length humanVEGF) (human) (UniProt P15692); assay: ELISA titer on coated humVEGF1-165, 5000 ng/mL
Sequence of humVEGF1-165 homodimer (recombinant full-length humanVEGF) (human) (P15692 other isoform, or with tags, fused parts or gaps): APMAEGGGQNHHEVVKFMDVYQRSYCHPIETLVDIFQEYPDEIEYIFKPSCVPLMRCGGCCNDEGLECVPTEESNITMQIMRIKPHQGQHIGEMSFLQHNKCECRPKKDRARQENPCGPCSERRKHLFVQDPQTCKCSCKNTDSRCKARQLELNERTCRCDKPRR

Sequence of ratVEGF1-165 homodimer (recombinant full-length ratVEGF) (rat) (P16612 27-165, form in doubt): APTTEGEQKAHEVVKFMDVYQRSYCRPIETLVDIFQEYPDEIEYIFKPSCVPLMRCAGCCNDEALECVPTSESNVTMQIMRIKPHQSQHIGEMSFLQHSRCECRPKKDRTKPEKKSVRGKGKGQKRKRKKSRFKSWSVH

Row | Substance | ELISA signal at dilution 1/100 [1] | ELISA signal at dilution 1/300 [1] | ELISA signal at dilution 1/1000 [1] | titer endblood [1] [ng/mL] | Titer (-10log dilution) [2]
1 | Avastin™ (Bevacizumab) (antibody) | 236 | 148 | 103 | < 1000 | –
2 | BioVision™ (control Ab) (antibody) | – | – | – | – | 4.2
